In US5739278A, “Compositions for protein tyrosine phosphatases” (University of Washington, priority 1995, dated 1998):
Where no end group is shown, it is not given here. [ ]: non-standard residue; d: D form. pY = N[C@@H](Cc1ccc(OP(=O)(O)O)cc1)C(=O)O

Columns and labels:
RPTPα = biological target: T1, RPTPα (Homo sapiens, UniProt P18433); assay: Phosphatase assay with ENDY(P)INASL as substrate; type: biochemical
T1 construct: made in house; host or cells: Sf9 cells (baculovirus)
In short: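 TC.PTP, TCΔC11.PTP and RPTPα were purified from infected Sf9 cells; PTP1B (37 kDa form) was purified from placenta. Enzyme, ENDY(P)INASL phosphopeptide and effectors were incubated in buffer M6 for 10 min at 30 °C. The reaction was stopped with acidic charcoal, and radioactivity was counted in the cleared supernatant.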

CD45 = biological target: T2, CD45 (Homo sapiens, UniProt P08575); assay: Phosphatase assay with ENDY(P)INASL as substrate; type: biochemical
T2 construct: CD45 were purified from placenta and spleen, respectively; from tissue; host or cells: spleen
T2 sequence (P08575 26-1306): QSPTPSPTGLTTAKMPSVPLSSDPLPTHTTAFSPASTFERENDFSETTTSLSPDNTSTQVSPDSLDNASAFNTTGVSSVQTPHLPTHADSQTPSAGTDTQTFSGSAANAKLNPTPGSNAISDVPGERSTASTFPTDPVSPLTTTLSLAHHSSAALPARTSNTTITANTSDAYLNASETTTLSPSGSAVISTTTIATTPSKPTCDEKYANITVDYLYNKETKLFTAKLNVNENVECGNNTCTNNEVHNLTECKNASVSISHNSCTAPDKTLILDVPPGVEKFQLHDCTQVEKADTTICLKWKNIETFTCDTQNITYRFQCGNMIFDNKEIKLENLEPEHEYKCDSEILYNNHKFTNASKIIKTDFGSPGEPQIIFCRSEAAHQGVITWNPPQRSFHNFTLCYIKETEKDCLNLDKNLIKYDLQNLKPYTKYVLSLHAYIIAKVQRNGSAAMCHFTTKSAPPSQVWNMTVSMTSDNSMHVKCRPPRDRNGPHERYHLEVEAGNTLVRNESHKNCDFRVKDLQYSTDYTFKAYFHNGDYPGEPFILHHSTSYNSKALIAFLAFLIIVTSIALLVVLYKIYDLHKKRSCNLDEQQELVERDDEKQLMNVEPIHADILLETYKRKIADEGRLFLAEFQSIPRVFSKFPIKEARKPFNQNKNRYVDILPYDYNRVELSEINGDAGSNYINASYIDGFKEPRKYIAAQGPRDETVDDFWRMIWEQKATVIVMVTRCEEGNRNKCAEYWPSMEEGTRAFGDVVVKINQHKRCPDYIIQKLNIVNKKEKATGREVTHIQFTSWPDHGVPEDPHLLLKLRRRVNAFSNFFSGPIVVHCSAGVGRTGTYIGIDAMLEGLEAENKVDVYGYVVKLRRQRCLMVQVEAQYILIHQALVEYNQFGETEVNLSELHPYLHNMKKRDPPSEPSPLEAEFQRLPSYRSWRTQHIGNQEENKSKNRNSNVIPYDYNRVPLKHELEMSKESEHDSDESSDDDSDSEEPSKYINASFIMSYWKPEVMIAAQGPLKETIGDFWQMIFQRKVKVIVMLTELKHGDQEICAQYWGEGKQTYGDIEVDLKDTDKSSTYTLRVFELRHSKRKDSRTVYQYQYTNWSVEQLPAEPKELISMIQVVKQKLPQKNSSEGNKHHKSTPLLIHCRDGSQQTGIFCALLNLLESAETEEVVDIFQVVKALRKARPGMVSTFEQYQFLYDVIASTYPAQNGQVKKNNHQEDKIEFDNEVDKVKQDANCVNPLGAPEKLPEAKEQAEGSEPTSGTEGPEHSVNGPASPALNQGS
In short: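 Sf9-expressed TC.PTP, RPTPα; placental PTP1B (37 kDa form); splenic CD45. ENDY(P)INASL, buffer M6, 10 min, 30° C. Stop: Norit A charcoal in 0.9N HCl/0.1M pyrophosphate/2 mM NaH2PO4; spin, count supernate radioactivity.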

[1] = non-linear regression of substrate saturation curves, mean of two experiments
[2] = one unit = release of 1 nmol phosphate per minute

T1 sequence (P18433 20-802): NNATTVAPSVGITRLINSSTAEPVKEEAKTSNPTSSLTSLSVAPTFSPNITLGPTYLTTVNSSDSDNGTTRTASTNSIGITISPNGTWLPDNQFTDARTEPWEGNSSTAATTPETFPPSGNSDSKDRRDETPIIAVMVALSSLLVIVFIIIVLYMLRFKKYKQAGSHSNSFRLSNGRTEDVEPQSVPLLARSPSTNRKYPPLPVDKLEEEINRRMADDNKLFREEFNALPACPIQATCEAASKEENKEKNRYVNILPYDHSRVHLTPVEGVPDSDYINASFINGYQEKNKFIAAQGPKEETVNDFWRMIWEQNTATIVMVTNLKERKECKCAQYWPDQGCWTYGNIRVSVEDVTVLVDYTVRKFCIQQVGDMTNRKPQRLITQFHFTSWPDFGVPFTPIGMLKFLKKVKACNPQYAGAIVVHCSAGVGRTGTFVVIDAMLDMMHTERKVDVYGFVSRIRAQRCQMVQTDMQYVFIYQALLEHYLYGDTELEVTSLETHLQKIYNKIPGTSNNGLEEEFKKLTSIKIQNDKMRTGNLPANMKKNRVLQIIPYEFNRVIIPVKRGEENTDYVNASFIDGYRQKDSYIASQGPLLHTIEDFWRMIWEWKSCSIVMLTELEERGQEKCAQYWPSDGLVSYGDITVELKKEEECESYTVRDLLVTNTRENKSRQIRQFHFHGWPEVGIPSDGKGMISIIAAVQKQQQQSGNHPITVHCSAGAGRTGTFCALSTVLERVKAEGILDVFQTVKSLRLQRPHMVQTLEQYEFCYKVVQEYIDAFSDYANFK

“ENDY(P)INASL: ENDYINASL phosphorylated on its tyrosine residue (32P), used as PTP substrate (END[pY]INASL; also: phosphate 32P-labelled)” was tested, and the Km (RPTPα; [1]) was 32.5 ± 3.06 µM, the Vmax (RPTPα; [2]) was 1038 +/- 88 U/mg and the Km (CD45; [1]) was 13.8 ± 0.28 µM. The Vmax (CD45; [2]) was 1622 +/- 23 U/mg.
